Assay results from the supplement of paper PMC9170038.

Tested on: K4 kissing-loop RNA reporter
Experiment: apparent KD of K4 kissing-loop reporter; higher = weaker reporter binding
Conditions: Eterna round: R107
Experimental: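 RNA-MaP round R107: designed RNA switches with theophylline, tryptophan, arginine or FMN aptamers are transcribed on-chip within common flanks. They are titrated with a labelled K4 kissing-loop RNA reporter in RNA-MaP buffer (100 mM Tris pH 7.5, 80 mM KCl, 4 mM MgCl2), without ligand or with the indicated ligand. Median apparent KD per design.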

[1] = input ligand: theophylline 20 uM
[2] = input ligand: tryptophan 2.4 mM
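Further: bound reporter read as fluorescence of individual clusters on recovered sequencing chips by microscopy, with normalized cluster intensities fitted with a binding model.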

| Sequence | apparent KD of K4 kissing-loop reporter (input ligand: FMN 200 uM) | apparent KD of K4 kissing-loop reporter (input ligand: arginine 13.2 mM) | apparent KD of K4 kissing-loop reporter (input ligand: none) | apparent KD of K4 kissing-loop reporter [1] | apparent KD of K4 kissing-loop reporter [2] |
| --- | --- | --- | --- | --- | --- |
| CGCAAAUCGUCGGCCGCCACUGCAUUUGAACGCUAAUUGUCUCUGCGCGGAGUGAUGUUCUGUGCCAGGACCGGGACGGAUUUCG [theeternabot_exclusion_KL_Trp_B_21] | 446 nM | 381 nM | 517 nM | 499 nM | 146 nM |
| AGCUCAGAGUGACUCGAUAAGAGUCACAAACGAGGACCGGUACGGCCGCCACUCGAAAUAACGAGAGUGAUGUUCUUGCUGAGCA [FiskerMod 7 - Jieux - Same State Tryptophan A] | 1320 nM | 487 nM | 976 nM | 631 nM | 386 nM |
| AAAUUCUUUUUUUUAUUUAACUUUUCAGAAGGAGCGUGGUAGUACACAGGUAGGUCGCUGAAUUUUGGGCUAGUGAUGUUAGUUA [whbob_SS_Arginine_A_sa113] | 221 nM | 217 nM | 258 nM | 311 nM | 193 nM |
| ACACGGAGAGGCAUAACGUGCAUCUUCAGCGAGGAUAUCCAUUACAGGAGAAGGCGCUCCGGAGUGAUGUUCCGGCAAAAGAUAC [Quatatte] | 83.5 nM | 151 nM | 102 nM | 146 nM | 91.5 nM |
| CGAGUGAUGUUCGAAGAGUUGUUAAGCGAUACCAGCUAGGAAACUGGCCCUUGGCAGCGUAAUAAGUAAAUAAAUAAAUGAUCAC [whbob_Ex_Theo_A_th63] | 287 nM | 399 nM | 442 nM | 486 nM | 337 nM |
| UGAUACCAGACGGCCGCCACUCCCGUAAGUCAAAGACUUACGAAGAGAGUUGUCCAGUGAUGUUGGAGGACCGGGUCUGGUAUCU [FiskerMod 13 - Jieux - Exclusion - Tryptophan B] | 230 nM | 208 nM | 207 nM | 202 nM | 260 nM |
| GCCGUACGCAUGGAUACCAGCUUGUCCGAGUGAUGUUCGGGUCUGAAUGCCGGUAAUAAGAGCCCUUGGCAGCCAUGCGUACGGC | 137 nM | 104 nM | 124 nM | 117 nM | 123 nM |
| AAAGAUCUUCUAGAAACUAGAAGAUCAAGAGAGGAUAUCCGAAUUCGGAGAAGGCUCACUAAGUGAUGUUUGGAGCCAAUGGCAA [AK2 SS FMN A] | 1060 nM | 1100 nM | 1210 nM | 1090 nM | 932 nM |
| AGCGACUCUUCGGAGUCGCGGCUAAGGGAUACCAGUGAUGUUGGUCACCCUUGGCAGCCCAGAAGCCAAGCCACCAAAGGUGGCA [Omei KL Theo A Exc A v5] | 104 nM | 98.6 nM | 111 nM | 114 nM | 113 nM |
| AGAGUUAUGCGAGGAUAUGCGGUUAGUACUCAAAGAGUACUAACGCAGAGUGAUGUUCUGUGAAACACAGAAGGCGCAUAACUCA [Omei KL FMN B SS B v1] | 854 nM | 160 nM | 475 nM | 448 nM | 441 nM |
| AGCGAGAUACUUGUCUAGUAUACUACAGAUACCAGACAAGUACUAGUCCCUUGGCAGCUGUAGAUCGAGUGAUGUUCGAGUCGCU [Theo A SS t1] | 527 nM | 415 nM | 516 nM | 430 nM | 389 nM |
| CAUAGGAAACUAUGUUUCUCUCUUACUGAAGGAGCGCGUGAAAACGCAGGUAGGUCGCAGAUUUUGAGAGUGAUGUUCUCAAUAA [Ex Arginine A K4 18] | 128 nM | 167 nM | 139 nM | 155 nM | 91.7 nM |
| UUAGAGAUCUCAGGAUAUCAGUGAUGUUGGUGUGCAGAUCUGAGAUAGAAUUCUAUCUCAGAUCAAUGAGAAGGGAGAUCUCAUU [AK5 Exc FMN B] | 303 nM | 149 nM | 152 nM | 173 nM | 142 nM |
| AGGUCACCACUACAGUGAUGUUGUGGAGAGCAGGAUAUGCAGAAAUGCAGAAGGGCUCGCUCUCGGUGACCGAAUGAAACAUUCA [Omei KL FMN A SS A v7] | 404 nM | 670 nM | 766 nM | 476 nM | 704 nM |
| ACUAGUUAAUCGGCCGCCACUUCUAGUGAUGUUAGAAUUAUCCAGAUUAUCAGCGUAGCACAUUGAAGGACCGGGAUAAGGUGGU [theeternabot_exclusion_KL_Trp_B_2] | 275 nM | 236 nM | 269 nM | 273 nM | 261 nM |
| ACUGGGUUGACGAAAGUCAACAAAAGAGAAGGAGCGCACGAAAGUGCAGGUAGGUCGCUCAUUCCAGUGAUGUUGGAUCACCAGA [#SwitchBubble 18 #K4Late] | 242 nM | 366 nM | 453 nM | 279 nM | 199 nM |
| GAGAUAGAGGCGGCCGCCACUAGUGAUGUUAGUGAUGUUAGAUAGAGAAUAGAACAGAGGUAGGAUAGGACCGGGCCAGAUAGAG [whbob_SS_Tryp_B_w31] | 90.6 nM | 65.3 nM | 62.4 nM | 77 nM | 83.7 nM |
| AUUAAUUUCAGAGGAUAUCGUGAUUUUAUUUAAUUUAUUCAUUUGUGCAGUGAUGUUGCUAAUAUUCGAGAAGGCUGAUUUAUAA [whbob_Ex_FMNB__2th224] | 107 nM | 109 nM | 46.2 nM | 110 nM | 44.9 nM |
| AAGCCAAAGAUUGCUGCGGGUUCCAGAGAUACCAGCCGUAUUGAAGGCCCUUGGCAGCUCGAGUGAUGUUCGAGCCGUCUCUGGC [Lexerati] | 127 nM | 117 nM | 117 nM | 122 nM | 105 nM |
| GCAGUGAUGUUGCGGAUGUACAGUGGCGUGCGAGGACCGGUACGGCCGCCACUCGUACAGAGCGAGCUAAUACAUCGAUAGGUGA [whbob_SS_Tryp_A_m5] | 230 nM | 212 nM | 236 nM | 288 nM | 241 nM |
| UGAUACCAGACUGAUACCAGCCAGUGAUGUUGGCUAAUCCAAGAAGGAGUCAAAGACUCCGGCCCUUGGCAGCAGUCUGGUAUCU [TheoBX 3 #SwitchBubble #StaticStem] | 117 nM | 104 nM | 111 nM | 110 nM | 109 nM |
